Results: patent publication EP2308896A1 (Sanofi-Aventis, dated 2011)

Target: hRAGE (human, UniProt Q15109 23-342, limits assumed)
Assay: competition ELISA, hRAGE-S100B interaction

Chain of hRAGE (Q15109 23-342 limits assumed): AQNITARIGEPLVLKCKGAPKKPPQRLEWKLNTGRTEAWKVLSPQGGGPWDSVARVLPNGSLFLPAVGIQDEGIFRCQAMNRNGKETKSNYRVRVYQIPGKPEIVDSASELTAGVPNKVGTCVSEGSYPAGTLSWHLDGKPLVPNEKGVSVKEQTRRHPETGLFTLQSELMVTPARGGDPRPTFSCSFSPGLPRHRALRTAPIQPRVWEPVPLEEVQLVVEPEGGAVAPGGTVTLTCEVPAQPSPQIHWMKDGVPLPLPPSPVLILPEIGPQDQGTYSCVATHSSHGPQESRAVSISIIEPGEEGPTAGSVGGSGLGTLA

B1: 158 RAGE-1 (antibody, V domains shown)
VH: QIQLVQSGPELKKPGETVKISCKASGYTFTDYSMHWVKQAPGKGLKWMGWINTETGEPTYADDFKGRFAFSLETSASTAYLLINNLKTEDTATYFCARDYLYYYAMDYWGQGTSVTVSS
VL: DVVLTQTPLSLPVNIGDQASISCKSTKSLLNSDGFTYLDWYLQKPGQSPQLLIYLVSNRFSGVPDRFSGSGSGTDFTLKISRVEAEDLGVYYCFQSNYLPLTFGGGTKVEIK
notes: Anti-RAGE monoclonal antibody (hybridoma; captured by anti-mouse Fc in Biacore); also called LP08105
IC50: 0.72 nM
